Test results taken from IntAct's records for PubMed 17579517.

B1: Serine/threonine-protein kinase PINK1, mitochondrial (Homo sapiens), Q9BXM7-1 (parent)
chain: MAVRQALGRGLQLGRALLLRFTGKPGRAYGLGRPGPAAGCVRGERPGWAAGPGAEPRRVGLGLPNRLRFFRQSVAGLAARLQRQFVVRAWGCAGPCGRAVFLAFGLGLGLIEEKQAESRRAVSACQEIQAIFTQKSKPGPDPLDTRRLQGFRLEEYLIGQSIGKGCSAAVYEATMPTLPQNLEVTKSTGLLPGRGPGTSAPGEGQERAPGAPAFPLAIKMMWNISAGSSSEAILNTMSQELVPASRVALAGEYGAVTYRKSKRGPKQLAPHPNIIRVLRAFTSSVPLLPGALVDYPDVLPSRLHPEGLGHGRTLFLVMKNYPCTLRQYLCVNTPSPRLAAMMLLQLLEGVDHLVQQGIAHRDLKSDNILVELDPDGCPWLVIADFGCCLADESIGLQLPFSSWYVDRGGNGCLMAPEVSTARPGPRAVIDYSKADAWAVGAIAYEIFGLVNPFYGQGKAHLESRSYQEAQLPALPESVPPDVRQLVRALLQREASKRPSARVAANVLHLSLWGEHILALKNLKLDKMVGWLLQQSAATLLANRLTEKCCVETKMKMLFLANLECETLCQAALLLCSWRAAL
partner: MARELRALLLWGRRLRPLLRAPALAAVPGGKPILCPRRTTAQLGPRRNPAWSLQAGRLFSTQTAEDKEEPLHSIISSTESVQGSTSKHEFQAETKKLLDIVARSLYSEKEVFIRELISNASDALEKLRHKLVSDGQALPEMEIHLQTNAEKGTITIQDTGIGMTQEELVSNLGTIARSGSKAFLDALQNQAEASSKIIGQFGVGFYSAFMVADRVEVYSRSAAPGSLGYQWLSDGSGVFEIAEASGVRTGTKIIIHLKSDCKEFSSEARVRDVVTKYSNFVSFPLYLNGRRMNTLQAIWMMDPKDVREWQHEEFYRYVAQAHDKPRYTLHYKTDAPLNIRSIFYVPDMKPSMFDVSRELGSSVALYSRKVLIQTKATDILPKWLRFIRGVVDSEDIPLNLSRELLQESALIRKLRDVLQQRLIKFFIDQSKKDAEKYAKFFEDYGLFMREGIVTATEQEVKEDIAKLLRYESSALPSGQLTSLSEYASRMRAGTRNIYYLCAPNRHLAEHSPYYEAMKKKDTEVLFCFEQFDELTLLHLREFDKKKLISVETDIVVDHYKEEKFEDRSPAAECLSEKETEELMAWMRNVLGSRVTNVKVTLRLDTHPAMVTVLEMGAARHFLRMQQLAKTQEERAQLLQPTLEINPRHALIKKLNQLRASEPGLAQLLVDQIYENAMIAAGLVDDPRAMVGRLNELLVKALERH

Variants of: B1
Settings: with trap1_human TRAP1, Q12931

effect of a mutation on the interaction | Variant
decreasing interaction | G309D
decreasing interaction | D362A
decreasing interaction | K219A;D362A;D384A
decreasing interaction | L347P
decreasing interaction | D384A
